According to PMC11375770, “Fragment-Based Interrogation of the 14–3–3/TAZ Protein–Protein Interaction” (Biochemistry, 2024):
Where no end group is shown, it is not given here. [ ]: non-standard residue; d: D form. pS = N[C@@H](COP(=O)(O)O)C(=O)O

B1: TAZpS89 peptide (peptide)
peptide: QHVRSH[pS]SPASLQ
notes: TAZ-derived peptide surrounding phosphorylated Ser89; The methods of crystallisation say only 'the peptide'; also called TAZ-derived peptide; TAZ peptide; source: synthetic peptide (bought: Caslo, Denmark)

Key:
14-3-3ζ = target: T1, 14-3-3ζ (Homo sapiens, UniProt P63104); test: MST dose-response; also DSF and WaterLOGSY NMR with the TAZ peptide complex; assay type: binding
T1 construct: gene YWHAZ; with ERα-derived phosphopeptide (similar Kd with TAZpS89 peptide)
T1 sequence (P63104 1-245): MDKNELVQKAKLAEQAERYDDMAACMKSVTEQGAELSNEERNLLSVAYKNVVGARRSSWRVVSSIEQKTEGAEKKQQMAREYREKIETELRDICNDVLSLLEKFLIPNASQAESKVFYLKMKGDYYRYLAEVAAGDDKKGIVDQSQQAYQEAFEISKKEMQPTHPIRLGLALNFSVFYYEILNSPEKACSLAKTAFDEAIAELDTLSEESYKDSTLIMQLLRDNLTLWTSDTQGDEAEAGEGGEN
T1 sequence (P03372 1-595 partner): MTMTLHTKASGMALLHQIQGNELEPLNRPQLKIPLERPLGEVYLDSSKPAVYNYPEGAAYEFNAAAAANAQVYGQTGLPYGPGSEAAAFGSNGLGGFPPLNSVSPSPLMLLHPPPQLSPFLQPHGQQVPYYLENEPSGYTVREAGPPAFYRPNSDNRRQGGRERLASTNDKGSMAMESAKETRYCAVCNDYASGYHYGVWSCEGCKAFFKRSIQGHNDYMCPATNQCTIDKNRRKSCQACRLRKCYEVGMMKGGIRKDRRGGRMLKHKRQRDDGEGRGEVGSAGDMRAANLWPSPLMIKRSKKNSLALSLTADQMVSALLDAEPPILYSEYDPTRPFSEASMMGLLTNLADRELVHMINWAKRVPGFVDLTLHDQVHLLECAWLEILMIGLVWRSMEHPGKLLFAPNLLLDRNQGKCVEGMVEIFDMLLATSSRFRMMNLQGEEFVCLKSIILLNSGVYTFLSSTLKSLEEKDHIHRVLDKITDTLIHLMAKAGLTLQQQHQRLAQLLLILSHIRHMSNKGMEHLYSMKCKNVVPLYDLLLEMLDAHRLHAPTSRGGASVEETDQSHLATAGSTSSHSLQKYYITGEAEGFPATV

[1] = target: T2, 14-3-3ζ labelled with NT647-NHS dye (human, UniProt P63104 1-245, NT647-NHS dye (Monolith Protein Labeling Kit RED-NHS); labelled residues not stated); test: MST; TAZpS89 peptide titrated against a fixed concentration of NT647-labelled 14-3-3ζ; DPBS with 0.05% Tween20, 25 °C; apparent Kd; absence of fragment; details: both partners purified
T2 construct: Same construct as m1, with the fluorescent dye for MST; also called labeled 14-3-3ζ; source: E. coli BL21 (DE3), pProEX HTb plasmid, purified (Ni2+-NTA), labelled with Monolith Protein Labeling Kit RED-NHS
T2 sequence (looked up): T1 sequence (P63104 1-245)

[2] = target: T2, 14-3-3ζ labelled with NT647-NHS dye; test: MST; TAZpS89 peptide titrated against a fixed concentration of NT647-labelled 14-3-3ζ; DPBS with 0.05% Tween20, 25 °C; apparent Kd; presence of 1 mM fragment TCF199; details: both partners purified
[3] = target: T3, 14-3-3σΔC (C-terminally truncated after T231) (human, UniProt P31947 1-231); test: crystal structure; 14-3-3σΔC mixed 1:2 with the peptide, sitting drop, 0.095 M Hepes pH 7.5, PEG 400 26%, 0.19 M CaCl2, 5% glycerol; crystals soaked with 10 mM TCF199; details: both partners purified
T3 construct: also called 14-3-3sigma
T3 sequence (looked up): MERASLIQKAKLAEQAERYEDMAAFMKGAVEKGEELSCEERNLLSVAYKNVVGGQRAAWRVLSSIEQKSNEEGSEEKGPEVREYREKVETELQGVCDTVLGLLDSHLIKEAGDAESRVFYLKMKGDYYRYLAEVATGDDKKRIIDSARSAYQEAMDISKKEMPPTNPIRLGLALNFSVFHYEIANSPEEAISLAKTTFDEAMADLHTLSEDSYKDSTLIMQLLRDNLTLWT

| Molecule | Kd (14-3-3ζ) | Kd [1] | Kd [2] | binding result [3] |
| --- | --- | --- | --- | --- |
| O=C(Nc1ccccc1)OCC12CCCCC1NCCC2 (stereo not shown) [TCF199] | 112000 ± 77000 nM | – | – | – |
| B1 | – | 1380 nM | 40 nM | binds |
